Data as given in US20240158475A1.
Changes are numbered by the printed parent chain.

B1: Mutation 1-23 (antibody, V domains shown)
VH: EVQLQQSGTELVRPGALVKLSCKASGFNIKDYYLHWVKQRPRQGLEWIGWIDPENGKTIYDPKFQDKASITSDTSTNTAYLQLRSLTSEDTAVYYCVTAYFRFVYWGQGTLVTVSA
VL: QIVLTQSPAIMSAFPGERVTMTCSASSSVRYMYWHQQKPGSSPRLLIYDTSNVASGVPVRFSGSGSGTSYSLTISRDEAMDAATYYCQQWSSTPRTFGGGTKLEIKR
B2: WT 1-1 (antibody, V domains shown)
VH: B1 VH with D31E, L34I, E54D, F64V
VL: B1 VL with S27T, R30K, D49E, V53I, V57F, W90Q, T93Y
B3: Mutation 1-8 (antibody, V domains shown)
VH: B1 VH with F101Y
VL: B1 VL with S27T, T93F
B4: Mutation 1-32 (antibody, V domains shown)
VH: B1 VH
VL: B1 VL with V53I
B5: Mutation 1-13 (antibody, V domains shown)
VH: B1 VH with L34I, F101Y
VL: B1 VL with V53L, T93Y
B6: Mutation 1-12 (antibody, V domains shown)
VH: B1 VH with L34V, I59L
VL: B1 VL with S27T, V53I
B7: Mutation 1-28 (antibody, V domains shown)
VH: B1 VH with L34I, I59L, T98S
VL: B1 VL with S27T, V53L, T93Y
B8: Mutation 1-3 (antibody, V domains shown)
VH: B1 VH with L34V, T98S, F101V
VL: B1 VL with S27T, V53I
B9: WT 1-4 (antibody, V domains shown)
VH: B1 VH with D31E, E54D, I59L, F64V, F101Y
VL: B1 VL with R30K, D49E, V53L, V57F, W90Q, T93F
B10: Mutation 1-40 (antibody, V domains shown)
VH: B1 VH with L34I, I59L, F101V
VL: B1 VL
B11: Mutation 1-10 (antibody, V domains shown)
VH: B1 VH with L34I, T98S
VL: B1 VL with S27T, V53L, T93Y
B12: Mutation 1-7 (antibody, V domains shown)
VH: B1 VH with L34I, I59L
VL: B1 VL with V53L, T93Y
B13: Mutation 1-27 (antibody, V domains shown)
VH: B1 VH with L34V, T98S, F101V
VL: B1 VL with V53L
B14: Mutation 1-30 (antibody, V domains shown)
VH: B1 VH with L34V
VL: B1 VL with V53I, T93Y
B15: Mutation 1-41 (antibody, V domains shown)
VH: B1 VH with T98S, F101Y
VL: B1 VL with S27T, V53I, T93Y
B16: Mutation 1-1 (antibody, V domains shown)
VH: B1 VH with L34I
VL: B1 VL with S27T, V53L, T93Y
B17: Mutation 1-16 (antibody, V domains shown)
VH: B1 VH with L34I, I59L, T98S, F101V
VL: B1 VL with T93Y
B18: Mutation 1-25 (antibody, V domains shown)
VH: B1 VH with L34I
VL: B1 VL with V53L
B19: Mutation 1-14 (antibody, V domains shown)
VH: B1 VH with I59L, T98S, F101V
VL: B1 VL with S27T, T93F
B20: Mutation 1-2 (antibody, V domains shown)
VH: B1 VH with I59L, F101Y
VL: B1 VL with T93F
B21: Mutation 1-15 (antibody, V domains shown)
VH: B1 VH with L34V, F101Y
VL: B1 VL with S27T, V53I
B22: Mutation 1-36 (antibody, V domains shown)
VH: B1 VH with L34V
VL: B1 VL with V53L, T93F
B23: Mutation 1-5 (antibody, V domains shown)
VH: B1 VH with T98S, F101Y
VL: B1 VL with S27T, T93F
B24: Mutation 1-31 (antibody, V domains shown)
VH: B1 VH with L34I, I59L, F101V
VL: B1 VL with S27T, V53L, T93F
B25: Mutation 1-37 (antibody, V domains shown)
VH: B1 VH with L34I, I59L, T98S, F101Y
VL: B1 VL with S27T
B26: Mutation 1-39 (antibody, V domains shown)
VH: B1 VH with L34V
VL: B1 VL with S27T, V53L, T93F
B27: Mutation 1-34 (antibody, V domains shown)
VH: B1 VH with L34I, T98S, F101V
VL: B1 VL with V53L, T93F
B28: Mutation 1-4 (antibody, V domains shown)
VH: B1 VH with L34I, I59L, T98S
VL: B1 VL with V53L, T93Y
B29: Mutation 1-11 (antibody, V domains shown)
VH: B1 VH with I59L, T98S, F101Y
VL: B1 VL with T93F
B30: WT 1-7 (antibody, V domains shown)
VH: B1 VH with D31E, L34V, E54D, F64V, T98S, F101V
VL: B1 VL with S27T, R30K, D49E, V57F, W90Q
B31: Mutation 1-35 (antibody, V domains shown)
VH: B1 VH with I59L, T98S, F101Y
VL: B1 VL with S27T
B32: Mutation 1-38 (antibody, V domains shown)
VH: B1 VH with I59L
VL: B1 VL with V53I, T93Y
B33: Mutation 1-9 (antibody, V domains shown)
VH: B1 VH with L34V, I59L, T98S, F101V
VL: B1 VL with V53I
B34: Mutation 1-33 (antibody, V domains shown)
VH: B1 VH with L34V, I59L, F101Y
VL: B1 VL with S27T, V53I, T93Y
B35: Mutation 1-6 (antibody, V domains shown)
VH: B1 VH with L34V, F101V
VL: B1 VL with S27T, V53I
B36: Mutation 1-29 (antibody, V domains shown)
VH: B1 VH with T98S, F101Y
VL: B1 VL with S27T, T93Y
B37: WT 1-20 (antibody, V domains shown)
VH: B1 VH with D31E, L34I, E54D, I59L, F64V, T98S
VL: B1 VL with R30K, D49E, V53I, V57F, W90Q, T93Y
B38: Mutation 1-26 (antibody, V domains shown)
VH: B1 VH with I59L, F101Y
VL: B1 VL with T93Y
B39: Mutation 1-24 (antibody, V domains shown)
VH: B1 VH with L34V, I59L, F101V
VL: B1 VL with S27T, V53I, T93Y

Each binder was assayed against DN-III quality control recombinant protein (produced by Fapon Biotech InC.) (dengue virus) (assay: BLI, AMC sensor, antibody captured).

Kd	koff	kon	Binder
0.46 nM	3.86e-05 s⁻¹	44600 M⁻¹ s⁻¹	B1
6 nM	2.28e-05 s⁻¹	3770 M⁻¹ s⁻¹	B2
0.7 nM	2.33e-05 s⁻¹	33200 M⁻¹ s⁻¹	B3
0.35 nM	1.23e-05 s⁻¹	35200 M⁻¹ s⁻¹	B4
0.49 nM	2.08e-05 s⁻¹	42400 M⁻¹ s⁻¹	B5
1.09 nM	4.55e-05 s⁻¹	41800 M⁻¹ s⁻¹	B6
0.78 nM	2.89e-05 s⁻¹	37000 M⁻¹ s⁻¹	B7
0.32 nM	1.51e-05 s⁻¹	47400 M⁻¹ s⁻¹	B8
11.9 nM	4.95e-05 s⁻¹	4150 M⁻¹ s⁻¹	B9
0.115 nM	4.95e-05 s⁻¹	432000 M⁻¹ s⁻¹	B10
1.14 nM	4.21e-05 s⁻¹	36900 M⁻¹ s⁻¹	B11
0.11 nM	3.91e-05 s⁻¹	357000 M⁻¹ s⁻¹	B12
0.121 nM	3.66e-05 s⁻¹	303000 M⁻¹ s⁻¹	B13
0.95 nM	3.56e-05 s⁻¹	37600 M⁻¹ s⁻¹	B14
0.79 nM	3.47e-05 s⁻¹	44100 M⁻¹ s⁻¹	B15
0.72 nM	2.38e-05 s⁻¹	33100 M⁻¹ s⁻¹	B16
0.8 nM	3.04e-05 s⁻¹	38100 M⁻¹ s⁻¹	B17
1.09 nM	1.78e-05 s⁻¹	33900 M⁻¹ s⁻¹	B18
0.111 nM	4.53e-05 s⁻¹	408000 M⁻¹ s⁻¹	B19
0.103 nM	4.99e-05 s⁻¹	483000 M⁻¹ s⁻¹	B20

Kd	koff	kon	Binder
0.42 nM	1.89e-05 s⁻¹	45200 M⁻¹ s⁻¹	B21
0.34 nM	1.53e-05 s⁻¹	44900 M⁻¹ s⁻¹	B22
0.43 nM	2.11e-05 s⁻¹	49700 M⁻¹ s⁻¹	B23
0.115 nM	3.94e-05 s⁻¹	344000 M⁻¹ s⁻¹	B24
0.35 nM	1.71e-05 s⁻¹	48500 M⁻¹ s⁻¹	B25
0.83 nM	3.75e-05 s⁻¹	45100 M⁻¹ s⁻¹	B26
0.44 nM	1.34e-05 s⁻¹	30600 M⁻¹ s⁻¹	B27
0.29 nM	1.04e-05 s⁻¹	36200 M⁻¹ s⁻¹	B28
0.87 nM	2.83e-05 s⁻¹	32400 M⁻¹ s⁻¹	B29
3.7 nM	1.53e-05 s⁻¹	4090 M⁻¹ s⁻¹	B30
1.04 nM	4.35e-05 s⁻¹	41900 M⁻¹ s⁻¹	B31
0.36 nM	1.37e-05 s⁻¹	37800 M⁻¹ s⁻¹	B32
0.45 nM	1.35e-05 s⁻¹	30100 M⁻¹ s⁻¹	B33
0.99 nM	4.68e-05 s⁻¹	47500 M⁻¹ s⁻¹	B34
0.8 nM	3.72e-05 s⁻¹	46700 M⁻¹ s⁻¹	B35
0.9 nM	3.23e-05 s⁻¹	35700 M⁻¹ s⁻¹	B36
5.3 nM	1.64e-05 s⁻¹	3120 M⁻¹ s⁻¹	B37
0.111 nM	3.47e-05 s⁻¹	312000 M⁻¹ s⁻¹	B38
0.53 nM	1.74e-05 s⁻¹	37700 M⁻¹ s⁻¹	B39
